Values belong to the binder of their own block, whether it stands above or below them.
Tests used:
Assay in all cases: holdup assay
Parameters in all cases: key: below the threshold = too weak to quantify, mostly under pKd 3.1 to 4
AHNAK1, Q09666 = target: AHNAK1, Q09666
APBA1_1, Q02410 = target: T1, APBA1_1, Q02410
T1 sequence (Q02410 651-752, limits assumed, looked up): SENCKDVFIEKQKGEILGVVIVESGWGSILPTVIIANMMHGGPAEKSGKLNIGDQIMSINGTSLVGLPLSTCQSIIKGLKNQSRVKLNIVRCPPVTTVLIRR

APBA2_1, Q99767 = target: T2, APBA2_1, Q99767
T2 sequence (Q99767 563-664, limits assumed, looked up): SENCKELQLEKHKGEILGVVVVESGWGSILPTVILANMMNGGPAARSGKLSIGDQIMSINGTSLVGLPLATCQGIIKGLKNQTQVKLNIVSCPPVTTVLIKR

APBA2_2, Q99767 = target: T3, APBA2_2, Q99767
T3 sequence (Q99767 654-744, limits assumed, looked up): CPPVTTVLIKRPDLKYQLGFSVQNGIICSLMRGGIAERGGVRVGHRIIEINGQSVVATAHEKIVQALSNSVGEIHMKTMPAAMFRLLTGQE

DFNB31_1, Q9P202 = target: T4, DFNB31_1, Q9P202
T4 sequence (Q9P202 135-233, limits assumed, looked up): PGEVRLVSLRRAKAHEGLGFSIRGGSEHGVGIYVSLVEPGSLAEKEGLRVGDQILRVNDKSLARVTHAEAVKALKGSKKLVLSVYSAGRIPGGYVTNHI

DFNB31_2, Q9P202 = target: T5, DFNB31_2, Q9P202
T5 sequence (Q9P202 274-371, limits assumed, looked up): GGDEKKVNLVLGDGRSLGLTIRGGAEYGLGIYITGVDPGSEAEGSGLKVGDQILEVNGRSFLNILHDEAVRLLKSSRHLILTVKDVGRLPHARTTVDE

DLG1_3, Q12959 = target: DLG1_3, Q12959
DLG1_3, Q12959, sequence (Q12959 457-571): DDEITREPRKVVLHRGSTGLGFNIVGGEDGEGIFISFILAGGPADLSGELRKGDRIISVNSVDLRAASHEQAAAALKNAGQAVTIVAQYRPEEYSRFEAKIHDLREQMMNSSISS

DLG2_3, Q15700 = target: DLG2_3, Q15700
DVL3, Q92997 = target: T6, DVL3, Q92997
T6 sequence (Q92997 244-331, limits assumed, looked up): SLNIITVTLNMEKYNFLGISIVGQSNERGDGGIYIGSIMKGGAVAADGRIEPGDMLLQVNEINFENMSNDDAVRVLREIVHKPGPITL

FRMPD3, Q5JV73 = target: FRMPD3, Q5JV73
FRMPD3, Q5JV73, sequence (Q5JV73 12-100): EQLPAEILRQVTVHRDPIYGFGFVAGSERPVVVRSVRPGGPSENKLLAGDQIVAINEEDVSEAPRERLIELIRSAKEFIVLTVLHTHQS

GORASP1, Q9BQQ3 = target: GORASP1, Q9BQQ3
GORASP1, Q9BQQ3, sequence (Q9BQQ3 1-208): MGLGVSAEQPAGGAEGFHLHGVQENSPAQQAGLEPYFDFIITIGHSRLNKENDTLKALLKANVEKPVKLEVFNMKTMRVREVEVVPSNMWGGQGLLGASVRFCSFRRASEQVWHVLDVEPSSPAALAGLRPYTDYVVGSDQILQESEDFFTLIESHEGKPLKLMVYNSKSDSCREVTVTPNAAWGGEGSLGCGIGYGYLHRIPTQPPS

GORASP2, Q9H8Y8 = target: GORASP2, Q9H8Y8
GRID2IP_2, A4D2P6 = target: GRID2IP_2, A4D2P6
GRID2IP_2, A4D2P6, sequence (A4D2P6 272-370): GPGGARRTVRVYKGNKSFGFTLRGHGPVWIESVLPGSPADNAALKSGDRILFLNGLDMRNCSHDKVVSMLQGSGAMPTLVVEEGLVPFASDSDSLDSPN

GRIP2_6, Q9C0E4 = target: GRIP2_6, Q9C0E4
GRIP2_6, Q9C0E4, sequence (Q9C0E4 648-740): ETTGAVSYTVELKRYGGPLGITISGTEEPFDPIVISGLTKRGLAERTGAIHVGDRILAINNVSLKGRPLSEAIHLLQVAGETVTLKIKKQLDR

GRIP2_7, Q9C0E4 = target: GRIP2_7, Q9C0E4
GRIP2_7, Q9C0E4, sequence (Q9C0E4 934-1023): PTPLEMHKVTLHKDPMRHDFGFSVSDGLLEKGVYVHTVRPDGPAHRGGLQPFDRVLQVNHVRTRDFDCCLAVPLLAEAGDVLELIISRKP

HTRA3, P83110 = target: T7, HTRA3, P83110
T7 sequence (P83110 354-453, limits assumed, looked up): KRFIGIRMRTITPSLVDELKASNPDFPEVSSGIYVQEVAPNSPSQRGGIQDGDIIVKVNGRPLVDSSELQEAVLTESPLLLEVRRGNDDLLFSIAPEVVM

IL16_1, Q14005 = target: IL16_1, Q14005
IL16_1, Q14005, sequence (Q14005 210-306): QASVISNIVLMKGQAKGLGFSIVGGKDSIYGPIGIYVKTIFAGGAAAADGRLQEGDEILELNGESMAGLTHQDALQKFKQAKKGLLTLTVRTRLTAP

LIMK2, P53671 = target: LIMK2, P53671
LIMK2, P53671, sequence (P53671 143-248): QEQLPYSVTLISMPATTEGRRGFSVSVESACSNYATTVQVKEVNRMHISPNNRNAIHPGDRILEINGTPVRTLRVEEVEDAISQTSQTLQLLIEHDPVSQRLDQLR

LNX1_1, Q8TBB1 = target: LNX1_1, Q8TBB1
LNX1_1, Q8TBB1, sequence (Q8TBB1 261-371): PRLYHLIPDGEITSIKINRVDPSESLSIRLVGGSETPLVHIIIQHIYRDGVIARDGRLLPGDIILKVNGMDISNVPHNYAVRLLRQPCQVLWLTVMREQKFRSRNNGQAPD

MAGI2_3, Q86UL8 = target: MAGI2_3, Q86UL8
MAGI2_3, Q86UL8, sequence (Q86UL8 600-682): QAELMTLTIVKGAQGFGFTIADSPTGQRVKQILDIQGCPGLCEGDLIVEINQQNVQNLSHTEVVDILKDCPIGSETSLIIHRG

MAGI2_5, Q86UL8 = target: MAGI2_5, Q86UL8
MAGI2_5, Q86UL8, sequence (Q86UL8 915-1017): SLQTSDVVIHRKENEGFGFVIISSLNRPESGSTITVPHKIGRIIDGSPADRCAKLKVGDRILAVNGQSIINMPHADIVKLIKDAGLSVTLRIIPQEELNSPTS

MAST1, Q9Y2H9 = target: MAST1, Q9Y2H9
MAST1, Q9Y2H9, sequence (Q9Y2H9 962-1065): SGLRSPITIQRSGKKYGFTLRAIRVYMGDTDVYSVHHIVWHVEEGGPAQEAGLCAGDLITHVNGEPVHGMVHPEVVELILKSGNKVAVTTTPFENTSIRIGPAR

MPDZ_5, O75970 = target: T8, MPDZ_5, O75970
T8 sequence (O75970 695-796, limits assumed, looked up): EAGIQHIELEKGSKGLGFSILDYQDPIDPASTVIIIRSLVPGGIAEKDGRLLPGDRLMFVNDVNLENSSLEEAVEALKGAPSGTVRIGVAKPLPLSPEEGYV

NHERF2_2, Q15599 = target: NHERF2_2, Q15599
NHERF2_2, Q15599, sequence (Q15599 142-238): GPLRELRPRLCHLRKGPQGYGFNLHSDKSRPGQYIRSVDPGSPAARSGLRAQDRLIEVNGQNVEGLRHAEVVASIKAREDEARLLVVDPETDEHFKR

NOS1, P29475 = target: NOS1, P29475
NOS1, P29475, sequence (P29475 9-101): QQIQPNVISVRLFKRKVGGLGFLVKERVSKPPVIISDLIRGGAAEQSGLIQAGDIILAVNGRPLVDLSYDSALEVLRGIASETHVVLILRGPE

RHPN1, Q8TCX5 = target: T9, RHPN1, Q8TCX5
T9 sequence (Q8TCX5 508-602, limits assumed, looked up): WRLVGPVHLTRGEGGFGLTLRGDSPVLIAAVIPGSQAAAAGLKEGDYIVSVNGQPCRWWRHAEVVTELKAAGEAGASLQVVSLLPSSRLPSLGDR

SIPA1L2, Q9P2F8 = target: T10, SIPA1L2, Q9P2F8
T10 sequence (Q9P2F8 945-1036, limits assumed, looked up): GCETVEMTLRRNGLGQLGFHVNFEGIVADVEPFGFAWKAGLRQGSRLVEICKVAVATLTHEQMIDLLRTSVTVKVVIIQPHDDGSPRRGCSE

[1] = plain residues with an end cap or a label only (N-terminal biotin on a linker: ahx)
[2] = plain residues with an end cap or a label only (N-terminal biotin on a linker: ttds)

AHNAK1, Q09666, sequence (Q09666 4-100): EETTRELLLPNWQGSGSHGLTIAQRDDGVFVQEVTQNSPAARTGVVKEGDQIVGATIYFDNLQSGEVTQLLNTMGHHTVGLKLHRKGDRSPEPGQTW

Binder: TEAKLTETNA [MYO18A, Q92614]
- pKd (AHNAK1, Q09666; [1]): below the threshold
- pKd (APBA1_1, Q02410; [1]): below the threshold
- pKd (APBA2_1, Q99767; [1]): below the threshold
- pKd (APBA2_2, Q99767; [1]): below the threshold
- pKd (DFNB31_1, Q9P202; [1]): below the threshold
- pKd (DFNB31_2, Q9P202; [1]): below the threshold
- pKd (DLG1_3, Q12959; [1]): below the threshold
- pKd (DLG2_3, Q15700; [1]): below the threshold
- pKd (DVL3, Q92997; [1]): below the threshold
- pKd (FRMPD3, Q5JV73; [1]): below the threshold
- pKd (GORASP1, Q9BQQ3; [1]): below the threshold
- pKd (GORASP2, Q9H8Y8; [1]): below the threshold
- pKd (GRID2IP_2, A4D2P6; [1]): below the threshold
- pKd (GRIP2_6, Q9C0E4; [1]): below the threshold
- pKd (GRIP2_7, Q9C0E4; [1]): below the threshold
- pKd (HTRA3, P83110; [1]): below the threshold
- pKd (IL16_1, Q14005; [1]): below the threshold
- pKd (LIMK2, P53671; [1]): below the threshold
- pKd (LNX1_1, Q8TBB1; [1]): below the threshold
- pKd (MAGI2_3, Q86UL8; [1]): below the threshold
- pKd (MAGI2_5, Q86UL8; [1]): below the threshold
- pKd (MAST1, Q9Y2H9; [1]): below the threshold
- pKd (MPDZ_5, O75970; [1]): below the threshold
- pKd (NHERF2_2, Q15599; [1]): below the threshold
- pKd (NOS1, P29475; [1]): below the threshold
- pKd (RHPN1, Q8TCX5; [1]): below the threshold
- pKd (SIPA1L2, Q9P2F8; [1]): below the threshold

Binder: VLRLQSETSV [VANGL1, Q8TAA9]
- pKd (AHNAK1, Q09666; [2]): below the threshold
- pKd (APBA1_1, Q02410; [2]): below the threshold
- pKd (APBA2_1, Q99767; [2]): below the threshold
- pKd (APBA2_2, Q99767; [2]): below the threshold
- pKd (DFNB31_1, Q9P202; [2]): 4.03
- pKd (DFNB31_2, Q9P202; [2]): below the threshold
- pKd (DLG1_3, Q12959; [2]): 4.63
- pKd (DLG2_3, Q15700; [2]): 4.71
- pKd (DVL3, Q92997; [2]): below the threshold
- pKd (FRMPD3, Q5JV73; [2]): below the threshold
- pKd (GORASP1, Q9BQQ3; [2]): below the threshold
- pKd (GORASP2, Q9H8Y8; [2]): below the threshold
- pKd (GRID2IP_2, A4D2P6; [2]): below the threshold
- pKd (GRIP2_6, Q9C0E4; [2]): below the threshold
- pKd (GRIP2_7, Q9C0E4; [2]): below the threshold
- pKd (HTRA3, P83110; [2]): below the threshold
- pKd (IL16_1, Q14005; [2]): 3.7
- pKd (LIMK2, P53671; [2]): below the threshold
- pKd (LNX1_1, Q8TBB1; [2]): below the threshold
- pKd (MAGI2_3, Q86UL8; [2]): below the threshold
- pKd (MAGI2_5, Q86UL8; [2]): 4
- pKd (MAST1, Q9Y2H9; [2]): below the threshold
- pKd (MPDZ_5, O75970; [2]): below the threshold
- pKd (NHERF2_2, Q15599; [2]): 3.75
- pKd (NOS1, P29475; [2]): 3.75
- pKd (RHPN1, Q8TCX5; [2]): 4.37
- pKd (SIPA1L2, Q9P2F8; [2]): below the threshold

Continued, values first:

- pKd (AHNAK1, Q09666; [2]): below the threshold
- pKd (APBA1_1, Q02410; [2]): below the threshold
- pKd (APBA2_1, Q99767; [2]): below the threshold
- pKd (APBA2_2, Q99767; [2]): below the threshold
- pKd (DFNB31_1, Q9P202; [2]): 3.82
- pKd (DFNB31_2, Q9P202; [2]): below the threshold
- pKd (DLG1_3, Q12959; [2]): below the threshold
- pKd (DLG2_3, Q15700; [2]): below the threshold
- pKd (DVL3, Q92997; [2]): below the threshold
- pKd (FRMPD3, Q5JV73; [2]): below the threshold
- pKd (GORASP1, Q9BQQ3; [2]): 3.75
- pKd (GORASP2, Q9H8Y8; [2]): below the threshold
- pKd (GRID2IP_2, A4D2P6; [2]): 4.52
- pKd (GRIP2_6, Q9C0E4; [2]): below the threshold
- pKd (GRIP2_7, Q9C0E4; [2]): below the threshold
- pKd (HTRA3, P83110; [2]): below the threshold
- pKd (IL16_1, Q14005; [2]): below the threshold
- pKd (LIMK2, P53671; [2]): below the threshold
- pKd (LNX1_1, Q8TBB1; [2]): below the threshold
- pKd (MAGI2_3, Q86UL8; [2]): below the threshold
- pKd (MAGI2_5, Q86UL8; [2]): 4.37
- pKd (MAST1, Q9Y2H9; [2]): 5.14
- pKd (MPDZ_5, O75970; [2]): below the threshold
- pKd (NHERF2_2, Q15599; [2]): 5.17
- pKd (NOS1, P29475; [2]): 4.05
- pKd (RHPN1, Q8TCX5; [2]): 5
- pKd (SIPA1L2, Q9P2F8; [2]): below the threshold
Binder: GQDSREETQL [KCNT2, Q6UVM3]

- pKd (AHNAK1, Q09666; [2]): 3.75
- pKd (APBA1_1, Q02410; [2]): below the threshold
- pKd (APBA2_1, Q99767; [2]): below the threshold
- pKd (APBA2_2, Q99767; [2]): below the threshold
- pKd (DFNB31_1, Q9P202; [2]): 3.57
- pKd (DFNB31_2, Q9P202; [2]): below the threshold
- pKd (DLG1_3, Q12959; [2]): 3.83
- pKd (DLG2_3, Q15700; [2]): 3.8
- pKd (DVL3, Q92997; [2]): below the threshold
- pKd (FRMPD3, Q5JV73; [2]): below the threshold
- pKd (GORASP1, Q9BQQ3; [2]): below the threshold
- pKd (GORASP2, Q9H8Y8; [2]): below the threshold
- pKd (GRID2IP_2, A4D2P6; [2]): below the threshold
- pKd (GRIP2_6, Q9C0E4; [2]): below the threshold
- pKd (GRIP2_7, Q9C0E4; [2]): 3.49
- pKd (HTRA3, P83110; [2]): 3.54
- pKd (IL16_1, Q14005; [2]): below the threshold
- pKd (LIMK2, P53671; [2]): below the threshold
- pKd (LNX1_1, Q8TBB1; [2]): 3.58
- pKd (MAGI2_3, Q86UL8; [2]): below the threshold
- pKd (MAGI2_5, Q86UL8; [2]): 3.48
- pKd (MAST1, Q9Y2H9; [2]): 4.26
- pKd (MPDZ_5, O75970; [2]): below the threshold
- pKd (NHERF2_2, Q15599; [2]): 4.12
- pKd (NOS1, P29475; [2]): 3.75
- pKd (RHPN1, Q8TCX5; [2]): 4.03
- pKd (SIPA1L2, Q9P2F8; [2]): below the threshold
Binder: QSARYRDTEL [TJP2, Q9UDY2]

- pKd (AHNAK1, Q09666; [2]): below the threshold
- pKd (APBA1_1, Q02410; [2]): below the threshold
- pKd (APBA2_1, Q99767; [2]): below the threshold
- pKd (APBA2_2, Q99767; [2]): below the threshold
- pKd (DFNB31_1, Q9P202; [2]): 3.84
- pKd (DFNB31_2, Q9P202; [2]): below the threshold
- pKd (DLG1_3, Q12959; [2]): below the threshold
- pKd (DLG2_3, Q15700; [2]): below the threshold
- pKd (DVL3, Q92997; [2]): below the threshold
- pKd (FRMPD3, Q5JV73; [2]): below the threshold
- pKd (GORASP1, Q9BQQ3; [2]): below the threshold
- pKd (GORASP2, Q9H8Y8; [2]): below the threshold
- pKd (GRID2IP_2, A4D2P6; [2]): 4.87
- pKd (GRIP2_6, Q9C0E4; [2]): below the threshold
- pKd (GRIP2_7, Q9C0E4; [2]): below the threshold
- pKd (HTRA3, P83110; [2]): below the threshold
- pKd (IL16_1, Q14005; [2]): below the threshold
- pKd (LIMK2, P53671; [2]): below the threshold
- pKd (LNX1_1, Q8TBB1; [2]): below the threshold
- pKd (MAGI2_3, Q86UL8; [2]): below the threshold
- pKd (MAGI2_5, Q86UL8; [2]): 4.47
- pKd (MAST1, Q9Y2H9; [2]): 4.91
- pKd (MPDZ_5, O75970; [2]): below the threshold
- pKd (NHERF2_2, Q15599; [2]): 5.24
- pKd (NOS1, P29475; [2]): 3.95
- pKd (RHPN1, Q8TCX5; [2]): 4.47
- pKd (SIPA1L2, Q9P2F8; [2]): below the threshold
Binder: IDNDTESTAL [ARHGAP17, Q68EM7]
